Positions of bridges follow the written chain, without caps; N, C: chain ends. Residues, ends and D or L forms follow the SMILES beside them. *: point of attachment. DOTA = O=C(O)CN1CCN(CC(=O)O)CCN(CC(=O)*)CCN(CC(=O)O)CC1
What was measured:
in vivo = conditions: female, athymic nu/nu, mouse, iv, total radioactivity
Experimental: All animal studies were carried out in compliance with federal and local institutional rules for animal experimentation. Approximately, 10^7 U87MG cells were suspended in PBS and subcutaneously implanted in the left shoulders of female athymic nu/nu mice. Tumors were allowed to grow to a size of 0.5 cm (2-3 weeks) before imaging experiments were performed. For biodistribution studies, U87MG tumor-bearing mice (n = 3 for each group) were injected with ^111In-DOTA-AgRP-7C (0.259–0.37 MBq, […]) or ^111In-DOTA-AgRP-6E (0.296–0.444 MBq, 8–12 μCi) via the tail vein and sacrificed at different time points (0.5, 2, 24, and 48 h) after injection (p.i.). Tumor and normal tissues of interest were removed and weighed, and their radioactivity was measured with a γ-counter. Radioactivity uptake was expressed as the percent injected dose per gram of tissue (%ID/g). To test the in vivo αvβ3 integrin targeting specificity of the probe, U87MG tumor-bearing mice (n = 3 for each group) were injected via the tail vein with a mixture of ^111In-DOTA-AgRP-7C (0.259–0.37 MBq, 7–10 μCi) and 330 μg of c(RGDyK). The mice were sacrificed at 2 h p.i. and the biodistribution of the radiolabeled peptide was measured as above.
Quantitative data were expressed as mean ± SD. Means were compared using the Student t-test. A 95% confidence level was chosen to determine the significance between groups, with P values of less than 0.05 indicating significant differences.

in vitro = in vitro ADME; conditions: mouse, serum
Experimental: Radiolabeled AgRP* peptides were incubated in 0.01 M PBS (pH 7.4) at 37°C for 24 h and monitored for degradation by HPLC. Stability was also tested by incubating 0.74 MBq (20 μCi) ^111In-DOTA-AgRP-7C or ^111In-DOTA-AgRP-6E in 400 μL of mouse serum at 37°C for 2 h. Afterward, the mixture was re-suspended in 0.5 mL of DMF containing 5 μL of Triton X-100 and centrifuged at 16,000 g for 2 min. The supernatant, which contained >95% of the starting radioactivity, was filtered using a 10 K NanoSep device (Pall Corporation, East Hills, NY, USA). Greater than 99% of the radioactive material passed through this filter. The samples were analyzed by radio-HPLC, and the percentage of intact peptide was determined by quantifying peaks corresponding to the intact peptide and to the degradation products.
Figure 1 Stability analysis of ^111In-DOTA-AgRP-7C (a) and (b), and ^111In-DOTA-AgRP-6E (c) and (d) in PBS and mouse serum. The two radiopeptides were incubated with PBS for 24 h at […], and mouse serum for 2 h at 37°C.

**Q.** With `CC(C)C[C@@H]1NC(=O)[C@@H]2CSSC[C@@H]3NC(=O)[C@H]([C@@H](C)O)NC(=O)[C@H](C)NC(=O)[C@H](C)NC(=O)[C@@H]4CCCN4C(=O)[C@H](CC(=O)O)NC(=O)[C@H](CSSC[C@H](NC(=O)CNC(=O)CN4CCN(CC(=O)O)CCN(CC(=O)O)CCN(CC(=O)O)CC4)C(=O)N[C@@H](C(C)C)C(=O)N[C@@H](CCCNC(=N)N)C(=O)N[C@@H](CC(C)C)C(=O)N[C@@H](Cc4c[nH]cn4)C(=O)N[C@@H](CCC(=O)O)C(=O)N[C@@H](CO)C(=O)N2)NC(=O)[C@H](CSSC[C@@H](C(=O)N[C@@H](CCCNC(=N)N)C(=O)O)NC(=O)[C@H](Cc2ccc(O)cc2)NC(=O)[C@@H]2CSSC[C@H](NC(=O)[C@H](Cc4ccc(O)cc4)NC3=O)C(=O)N[C@@H](C(C)C)C(=O)N[C@@H](CCC(=O)O)C(=O)N[C@@H](CCCNC(=N)N)C(=O)NCC(=O)N[C@@H](CC(=O)O)C(=O)NCC(=O)N[C@@H](CC(N)=O)C(=O)N[C@@H](CCCNC(=N)N)C(=O)N[C@@H](CCCNC(=N)N)C(=O)N2)NC(=O)[C@@H]2CCCN2C(=O)[C@H](C(C)C)NC(=O)[C@H](CCC(N)=O)NC(=O)[C@H](CCC(N)=O)NC(=O)CNC1=O` [111In-DOTA-AgRP-6E, metal not drawn] ({DOTA}-GCVRLHESCLGQQVPCCDPAATCYCVERGDGNRRCYCR-OH; disulfide 2-17, 9-23, 16-37, 25-35) as the compound, how does the tissue uptake at 0.5 h (in vivo; Blood uptake) read?
**A.** Its tissue uptake at 0.5 h is 1.27 ± 0.53 %ID/g.

**Q.** And the tissue uptake at 2 h (in vivo; Blood uptake)?
**A.** The tissue uptake at 2 h was 0.06 ± 0.05 %ID/g.

**Q.** What about the tissue uptake at 24 h (in vivo; Blood uptake) of the same compound?
**A.** The tissue uptake at 24 h was 0.01 %ID/g.

**Q.** And the tissue uptake at 0.5 h (in vivo; Bone uptake)?
**A.** The tissue uptake at 0.5 h was 1.18 ± 0.15 %ID/g.

**Q.** And the tissue uptake at 2 h (in vivo; Bone uptake)?
**A.** Its tissue uptake at 2 h is 0.56 ± 0.1 %ID/g.

**Q.** And the tissue uptake at 24 h (in vivo; Bone uptake)?
**A.** The tissue uptake at 24 h was 0.36 ± 0.04 %ID/g.

**Q.** What about the tissue uptake at 0.5 h (in vivo; Brain uptake) of the same compound?
**A.** Its tissue uptake at 0.5 h is 0.06 ± 0.01 %ID/g.

**Q.** And the tissue uptake at 2 h (in vivo; Brain uptake)?
**A.** Its tissue uptake at 2 h is 0.02 ± 0.01 %ID/g.

**Q.** What about the tissue uptake at 24 h (in vivo; Brain uptake) of the same compound?
**A.** Its tissue uptake at 24 h is 0.02 ± 0.01 %ID/g.

**Q.** What about the tissue uptake at 0.5 h (in vivo; Heart uptake) of the same compound?
**A.** The tissue uptake at 0.5 h was 0.8 ± 0.24 %ID/g.

**Q.** What about the tissue uptake at 2 h (in vivo; Heart uptake) of the same compound?
**A.** The tissue uptake at 2 h was 0.18 ± 0.06 %ID/g.

**Q.** What about the tissue uptake at 24 h (in vivo; Heart uptake) of the same compound?
**A.** The tissue uptake at 24 h was 0.12 ± 0.02 %ID/g.

**Q.** What about the tissue uptake at 0.5 h (in vivo; Intestine uptake) of the same compound?
**A.** Its tissue uptake at 0.5 h is 2.04 ± 0.54 %ID/g.

**Q.** And the tissue uptake at 2 h (in vivo; Intestine uptake)?
**A.** Its tissue uptake at 2 h is 1.13 ± 0.14 %ID/g.

**Q.** What about the tissue uptake at 24 h (in vivo; Intestine uptake) of the same compound?
**A.** Its tissue uptake at 24 h is 0.93 ± 0.04 %ID/g.

**Q.** And the tissue uptake at 0.5 h (in vivo; Kidneys uptake)?
**A.** Its tissue uptake at 0.5 h is 15.4 ± 3.19 %ID/g.

**Q.** And the tissue uptake at 2 h (in vivo; Kidneys uptake)?
**A.** The tissue uptake at 2 h was 14.7 ± 1.98 %ID/g.

**Q.** What about the tissue uptake at 24 h (in vivo; Kidneys uptake) of the same compound?
**A.** Its tissue uptake at 24 h is 6.87 ± 1.19 %ID/g.

**Q.** What about the tissue uptake at 0.5 h (in vivo; Liver uptake) of the same compound?
**A.** Its tissue uptake at 0.5 h is 0.87 ± 0.2 %ID/g.

**Q.** And the tissue uptake at 2 h (in vivo; Liver uptake)?
**A.** Its tissue uptake at 2 h is 0.52 ± 0.01 %ID/g.

**Q.** And the tissue uptake at 24 h (in vivo; Liver uptake)?
**A.** Its tissue uptake at 24 h is 0.48 ± 0.02 %ID/g.

**Q.** What about the tissue uptake at 0.5 h (in vivo; Lung uptake) of the same compound?
**A.** Its tissue uptake at 0.5 h is 1.86 ± 0.56 %ID/g.

**Q.** And the tissue uptake at 2 h (in vivo; Lung uptake)?
**A.** Its tissue uptake at 2 h is 0.54 ± 0.12 %ID/g.

**Q.** What about the tissue uptake at 24 h (in vivo; Lung uptake) of the same compound?
**A.** The tissue uptake at 24 h was 0.27 ± 0.02 %ID/g.

**Q.** What about the tissue uptake at 0.5 h (in vivo; Muscle uptake) of the same compound?
**A.** Its tissue uptake at 0.5 h is 0.64 ± 0.09 %ID/g.

**Q.** What about the tissue uptake at 2 h (in vivo; Muscle uptake) of the same compound?
**A.** The tissue uptake at 2 h was 0.15 ± 0.07 %ID/g.

**Q.** And the tissue uptake at 24 h (in vivo; Muscle uptake)?
**A.** Its tissue uptake at 24 h is 0.07 ± 0.01 %ID/g.

**Q.** And the tissue uptake at 0.5 h (in vivo; Pancreas uptake)?
**A.** Its tissue uptake at 0.5 h is 0.57 ± 0.23 %ID/g.

**Q.** What about the tissue uptake at 2 h (in vivo; Pancreas uptake) of the same compound?
**A.** The tissue uptake at 2 h was 0.2 ± 0.06 %ID/g.

**Q.** What about the tissue uptake at 24 h (in vivo; Pancreas uptake) of the same compound?
**A.** Its tissue uptake at 24 h is 0.14 ± 0.01 %ID/g.

**Q.** What about the tissue uptake at 0.5 h (in vivo; Spleen uptake) of the same compound?
**A.** Its tissue uptake at 0.5 h is 1.36 ± 0.26 %ID/g.

**Q.** And the tissue uptake at 2 h (in vivo; Spleen uptake)?
**A.** Its tissue uptake at 2 h is 0.83 ± 0.05 %ID/g.

**Q.** What about the tissue uptake at 24 h (in vivo; Spleen uptake) of the same compound?
**A.** The tissue uptake at 24 h was 0.65 ± 0.06 %ID/g.

**Q.** What about the tissue uptake at 0.5 h (in vivo; Stomach uptake) of the same compound?
**A.** Its tissue uptake at 0.5 h is 2.02 ± 0.47 %ID/g.

**Q.** What about the tissue uptake at 2 h (in vivo; Stomach uptake) of the same compound?
**A.** The tissue uptake at 2 h was 0.87 ± 0.14 %ID/g.

**Q.** And the tissue uptake at 24 h (in vivo; Stomach uptake)?
**A.** Its tissue uptake at 24 h is 0.53 ± 0.02 %ID/g.

**Q.** And the tissue uptake at 0.5 h (in vivo; Tumor uptake)?
**A.** Its tissue uptake at 0.5 h is 1.76 ± 0.34 %ID/g.

**Q.** What about the tissue uptake at 2 h (in vivo; Tumor uptake) of the same compound?
**A.** The tissue uptake at 2 h was 1.21 ± 0.21 %ID/g.

**Q.** What about the tissue uptake at 24 h (in vivo; Tumor uptake) of the same compound?
**A.** The tissue uptake at 24 h was 0.89 ± 0.06 %ID/g.

**Q.** What about the tissue to tissue ratio at 0.5 h (in vivo; Tumor-to-blood ratio) of the same compound?
**A.** Its tissue to tissue ratio at 0.5 h is 1.71 ± 1.21.

**Q.** What about the tissue to tissue ratio at 2 h (in vivo; Tumor-to-blood ratio) of the same compound?
**A.** The tissue to tissue ratio at 2 h was 33 ± 23.3.

**Q.** What about the tissue to tissue ratio at 24 h (in vivo; Tumor-to-blood ratio) of the same compound?
**A.** Its tissue to tissue ratio at 24 h is 142 ± 3.39.

**Q.** And the tissue to tissue ratio at 0.5 h (in vivo; Tumor-to-muscle ratio)?
**A.** Its tissue to tissue ratio at 0.5 h is 2.75 ± 0.28.

**Q.** And the tissue to tissue ratio at 2 h (in vivo; Tumor-to-muscle ratio)?
**A.** Its tissue to tissue ratio at 2 h is 9.2 ± 3.88.

**Q.** And the tissue to tissue ratio at 24 h (in vivo; Tumor-to-muscle ratio)?
**A.** Its tissue to tissue ratio at 24 h is 13.1 ± 1.94.

**Q.** And the remaining at 2 h, 1.85 MBq/mL (in vitro)?
**A.** Its remaining at 2 h, 1.85 MBq/mL is over 95%.
